For this test, the target named is T1, CD24多肽 (human, UniProt P25063 27-59).
T1 construct: domain: CD24核心区; also called CD24核心区多肽; 抗原肽CD24
T1 peptide (looked up): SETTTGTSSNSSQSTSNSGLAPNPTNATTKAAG
Put plainly: Competitive ELISA by the Friguet method: 10 pM antibody preincubated overnight with 0-6.25e-10 M antigen, then free antibody captured on coated CD24 peptide; KD from linear regression. For orientation: In an ELISA, binding on a coated surface is turned into a signal by an enzyme label.

The record followed here is patent CN105646713A (UNIV CHINA PHARMA, dated 2016).

B1: 单克隆抗体E4 (antibody, V domains shown)
VH: QVKLEESGGGLVQPGGSLKISCAASGPDFSRYWMSWVRQAPGKGLEWIGEINPDYSTINYTPSLRDKFIISRDNAKNTLYLQMSKVRYEDTSLYYCVRQGDYWGQGTSVTVSS
VL: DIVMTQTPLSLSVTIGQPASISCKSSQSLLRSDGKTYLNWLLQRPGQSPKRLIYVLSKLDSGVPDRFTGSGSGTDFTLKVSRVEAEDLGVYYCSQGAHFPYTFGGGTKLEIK
notes: also called E4杂交瘤细胞株抗体
One may read the Kd as the equilibrium constant for the complex coming apart. A lower Kd goes with higher affinity. Molecule B1 had an equilibrium dissociation constant (Kd) of 0.84 nM.
